Measurements reported in the supplement of paper PMC7125110.
± gives the standard error. For some assays here: Variants at the floor of the assay were thinned out.

B1: glmS ribozyme (parent)
chain: AUAAAAGCGCCAGAACUACAGAAAUGUAGUUGACGAGGAGGAGGUUUAUCGAAUUUUCGGCGGAUGCCUCCAAA

Legend:
Conditions in all cases: with glucosamine-6-phosphate
glucosamine-6-phosphate [1] = variants of: B1; test: kcat; higher = faster cleavage; RNA array
Summary of the method: (§1)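 Over ~14 h at 37 °C, tiles were imaged as glucosamine-6-phosphate (40 μM to 10 mM) in HEPES/KCl/Mg(OAc)2 buffer flowed across sequenced MiSeq chips. The chips carried barcoded ribozyme variants transcribed in situ by E. coli RNA polymerase and tracked with a hybridised Cy3 probe. After normalisation to baseline and to non-cleaving reference variants, one- or two-exponential decay fits of per-tile medians gave kobs. kcat and KM followed from weighted Michaelis–Menten fits across concentrations.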

glucosamine-6-phosphate [2] = variants of: B1; test: KM; higher = weaker cofactor use; RNA array
Summary of the method: as §1

glucosamine-6-phosphate [3] = variants of: B1; test: self-cleavage kobs at 40 uM GlcN6P; higher = faster cleavage; RNA array
Summary of the method: as §1

glucosamine-6-phosphate [4] = variants of: B1; test: self-cleavage kobs at 160 uM GlcN6P; higher = faster cleavage; RNA array
Summary of the method: as §1

glucosamine-6-phosphate [5] = variants of: B1; test: self-cleavage kobs at 640 uM GlcN6P; higher = faster cleavage; RNA array
Summary of the method: as §1

glucosamine-6-phosphate [6] = variants of: B1; test: self-cleavage kobs at 10000 uM GlcN6P; higher = faster cleavage; RNA array
Summary of the method: as §1

glucosamine-6-phosphate [7] = variants of: B1; test: self-cleavage kobs at 2500 uM GlcN6P; higher = faster cleavage; RNA array
Summary of the method: as §1

Variant: U45G U46A
- kcat (glucosamine-6-phosphate [1]): 0.00906 ± 0.0029 s⁻¹
- KM (glucosamine-6-phosphate [2]): 3870 ± 1700 µM
- self-cleavage kobs at 40 uM GlcN6P (glucosamine-6-phosphate [3]): 0.000106 ± 1.7e-05 s⁻¹
- self-cleavage kobs at 160 uM GlcN6P (glucosamine-6-phosphate [4]): 0.000641 ± 0.00023 s⁻¹
- self-cleavage kobs at 640 uM GlcN6P (glucosamine-6-phosphate [5]): 0.000705 ± 0.00032 s⁻¹
- self-cleavage kobs at 10000 uM GlcN6P (glucosamine-6-phosphate [6]): 0.00686 ± 0.0011 s⁻¹

Variant: U30A A48C
- kcat (glucosamine-6-phosphate [1]): 9.77e-05 ± 4.8e-06 s⁻¹
- self-cleavage kobs at 10000 uM GlcN6P (glucosamine-6-phosphate [6]): 4.29e-05 ± 8.1e-06 s⁻¹

Variant: A12U G43U
- kcat (glucosamine-6-phosphate [1]): 0.000148 ± 3e-05 s⁻¹
- self-cleavage kobs at 640 uM GlcN6P (glucosamine-6-phosphate [5]): 2.86e-05 ± 1.1e-05 s⁻¹
- self-cleavage kobs at 2500 uM GlcN6P (glucosamine-6-phosphate [7]): 0.000134 ± 2.2e-05 s⁻¹
- self-cleavage kobs at 10000 uM GlcN6P (glucosamine-6-phosphate [6]): 0.00012 ± 1.2e-05 s⁻¹

Variant: G32U U54A
- kcat (glucosamine-6-phosphate [1]): 0.00121 ± 4.3e-05 s⁻¹
- KM (glucosamine-6-phosphate [2]): 6510 ± 320 µM
- self-cleavage kobs at 640 uM GlcN6P (glucosamine-6-phosphate [5]): 0.000107 ± 1.4e-05 s⁻¹
- self-cleavage kobs at 2500 uM GlcN6P (glucosamine-6-phosphate [7]): 0.000344 ± 4.3e-05 s⁻¹
- self-cleavage kobs at 10000 uM GlcN6P (glucosamine-6-phosphate [6]): 0.000726 ± 0.0001 s⁻¹

Variant: G32C G37A U55A C67A C68A
- kcat (glucosamine-6-phosphate [1]): 4.68e-05 ± 2.3e-05 s⁻¹
- self-cleavage kobs at 640 uM GlcN6P (glucosamine-6-phosphate [5]): 7.47e-05 ± 3.5e-05 s⁻¹

Variant: U57A C70A
- kcat (glucosamine-6-phosphate [1]): 1.98e-05 ± 3.5e-06 s⁻¹

Variant: C58A C67G
- kcat (glucosamine-6-phosphate [1]): 9.61e-05 ± 2.2e-05 s⁻¹
- self-cleavage kobs at 160 uM GlcN6P (glucosamine-6-phosphate [4]): 3.39e-05 ± 1.3e-05 s⁻¹
- self-cleavage kobs at 640 uM GlcN6P (glucosamine-6-phosphate [5]): 6.98e-05 ± 9.8e-06 s⁻¹
- self-cleavage kobs at 2500 uM GlcN6P (glucosamine-6-phosphate [7]): 6.08e-05 ± 1e-05 s⁻¹
- self-cleavage kobs at 10000 uM GlcN6P (glucosamine-6-phosphate [6]): 0.000124 ± 1.3e-05 s⁻¹

Variant: C34G C67G
- kcat (glucosamine-6-phosphate [1]): 4.36e-05 ± 2.1e-05 s⁻¹
- self-cleavage kobs at 2500 uM GlcN6P (glucosamine-6-phosphate [7]): 4.65e-05 ± 1.9e-05 s⁻¹

Variant: G13C A39G
- kcat (glucosamine-6-phosphate [1]): 0.000183 ± 2.5e-05 s⁻¹
- KM (glucosamine-6-phosphate [2]): 4230 ± 1300 µM
- self-cleavage kobs at 2500 uM GlcN6P (glucosamine-6-phosphate [7]): 7.1e-05 ± 1.4e-05 s⁻¹
- self-cleavage kobs at 10000 uM GlcN6P (glucosamine-6-phosphate [6]): 0.000128 ± 2e-05 s⁻¹

Variant: A42U
- kcat (glucosamine-6-phosphate [1]): 0.00024 ± 2.1e-05 s⁻¹
- KM (glucosamine-6-phosphate [2]): 1350 ± 270 µM
- self-cleavage kobs at 40 uM GlcN6P (glucosamine-6-phosphate [3]): < 1e-05 s⁻¹
- self-cleavage kobs at 160 uM GlcN6P (glucosamine-6-phosphate [4]): 2.06e-05 ± 1.8e-06 s⁻¹
- self-cleavage kobs at 640 uM GlcN6P (glucosamine-6-phosphate [5]): 7.53e-05 ± 1.4e-06 s⁻¹
- self-cleavage kobs at 2500 uM GlcN6P (glucosamine-6-phosphate [7]): 0.000187 ± 3.7e-06 s⁻¹
- self-cleavage kobs at 10000 uM GlcN6P (glucosamine-6-phosphate [6]): 0.000203 ± 2.9e-06 s⁻¹

Variant: U30C U55C
- kcat (glucosamine-6-phosphate [1]): 0.000295 ± 3.2e-05 s⁻¹
- KM (glucosamine-6-phosphate [2]): 1490 ± 290 µM
- self-cleavage kobs at 160 uM GlcN6P (glucosamine-6-phosphate [4]): 3.54e-05 ± 9.7e-06 s⁻¹
- self-cleavage kobs at 640 uM GlcN6P (glucosamine-6-phosphate [5]): 8.83e-05 ± 8.8e-06 s⁻¹
- self-cleavage kobs at 2500 uM GlcN6P (glucosamine-6-phosphate [7]): 0.000167 ± 2.4e-05 s⁻¹
- self-cleavage kobs at 10000 uM GlcN6P (glucosamine-6-phosphate [6]): 0.000281 ± 3.9e-05 s⁻¹

Variant: A14U
- kcat (glucosamine-6-phosphate [1]): 0.0182 ± 0.0048 s⁻¹
- KM (glucosamine-6-phosphate [2]): 2730 ± 850 µM
- self-cleavage kobs at 40 uM GlcN6P (glucosamine-6-phosphate [3]): 0.000298 ± 5.5e-06 s⁻¹
- self-cleavage kobs at 160 uM GlcN6P (glucosamine-6-phosphate [4]): 0.00073 ± 3e-05 s⁻¹
- self-cleavage kobs at 640 uM GlcN6P (glucosamine-6-phosphate [5]): 0.00328 ± 0.00015 s⁻¹
- self-cleavage kobs at 2500 uM GlcN6P (glucosamine-6-phosphate [7]): 0.00942 ± 0.00041 s⁻¹
- self-cleavage kobs at 10000 uM GlcN6P (glucosamine-6-phosphate [6]): 0.0143 ± 0.00047 s⁻¹

Variant: G41U U47C
- kcat (glucosamine-6-phosphate [1]): 0.000156 ± 5.1e-05 s⁻¹
- self-cleavage kobs at 640 uM GlcN6P (glucosamine-6-phosphate [5]): 4.55e-05 ± 1.3e-05 s⁻¹
- self-cleavage kobs at 2500 uM GlcN6P (glucosamine-6-phosphate [7]): 0.000205 ± 4.6e-05 s⁻¹
- self-cleavage kobs at 10000 uM GlcN6P (glucosamine-6-phosphate [6]): 0.000128 ± 2.3e-05 s⁻¹

Variant: C16G U56G
- kcat (glucosamine-6-phosphate [1]): 0.00338 ± 0.00054 s⁻¹
- KM (glucosamine-6-phosphate [2]): 1220 ± 320 µM
- self-cleavage kobs at 40 uM GlcN6P (glucosamine-6-phosphate [3]): 0.000129 ± 2.5e-05 s⁻¹
- self-cleavage kobs at 160 uM GlcN6P (glucosamine-6-phosphate [4]): 0.000387 ± 9.6e-05 s⁻¹
- self-cleavage kobs at 640 uM GlcN6P (glucosamine-6-phosphate [5]): 0.000953 ± 0.00023 s⁻¹
- self-cleavage kobs at 2500 uM GlcN6P (glucosamine-6-phosphate [7]): 0.00213 ± 0.00038 s⁻¹
- self-cleavage kobs at 10000 uM GlcN6P (glucosamine-6-phosphate [6]): 0.00348 ± 0.00064 s⁻¹

Variant: G40U G66U
- kcat (glucosamine-6-phosphate [1]): 6.98e-05 ± 5.6e-06 s⁻¹
- KM (glucosamine-6-phosphate [2]): 2030 ± 510 µM
- self-cleavage kobs at 640 uM GlcN6P (glucosamine-6-phosphate [5]): 2.07e-05 ± 8.1e-06 s⁻¹
- self-cleavage kobs at 2500 uM GlcN6P (glucosamine-6-phosphate [7]): 3.54e-05 ± 7.3e-06 s⁻¹
- self-cleavage kobs at 10000 uM GlcN6P (glucosamine-6-phosphate [6]): 5.9e-05 ± 7.2e-06 s⁻¹

Variant: A15G U57G
- kcat (glucosamine-6-phosphate [1]): 9.24e-05 ± 1.1e-05 s⁻¹
- KM (glucosamine-6-phosphate [2]): 2500 ± 1200 µM
- self-cleavage kobs at 2500 uM GlcN6P (glucosamine-6-phosphate [7]): 5.11e-05 ± 2.2e-05 s⁻¹
- self-cleavage kobs at 10000 uM GlcN6P (glucosamine-6-phosphate [6]): 7.35e-05 ± 1.2e-05 s⁻¹

Variant: C11U A12U G32A
- kcat (glucosamine-6-phosphate [1]): 0.000169 ± 4.7e-05 s⁻¹
- self-cleavage kobs at 2500 uM GlcN6P (glucosamine-6-phosphate [7]): 0.000124 ± 3.5e-05 s⁻¹
- self-cleavage kobs at 10000 uM GlcN6P (glucosamine-6-phosphate [6]): 0.00013 ± 2.5e-05 s⁻¹
